Numbering of substitutions follows the chain as printed. One block for each binder: values may come before it.
Experiments:
[1] = molecular target: T1, recombinant mouse PD-1-his protein (Cat#:50124-M08H, Sino Biological Inc) (mouse, UniProt Q02242 25-167); experiment: SPR (Biacore T200), antibody captured, PD-1-his in flow, 1:1 fit
T1 construct: Bought protein used in Biacore and indirect ELISA; not shown: his tag
T1 sequence (looked up): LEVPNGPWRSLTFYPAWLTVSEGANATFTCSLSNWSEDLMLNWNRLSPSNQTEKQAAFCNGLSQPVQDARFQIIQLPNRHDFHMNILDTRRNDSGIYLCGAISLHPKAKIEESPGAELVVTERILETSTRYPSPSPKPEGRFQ
Text: The purified anti-PD-1 mouse monoclonal antibodies (mAbs) generated in Example 1 were characterized for binding affinities and binding kinetics by Biacore T200 system (GE healthcare, Pittsburgh, Pa., USA).
Briefly, Goat-Anti-Mouse IgG (Cat#: BR100838, GE healthcare, Mouse Antibody Capture Kit) was covalently linked to a CMS chip (carboxy methyl dextran coated chip, Cat#: BR100530, GE healthcare) via primary amines using a standard amine coupling kit (GE healthcare, Pittsburgh, Pa., USA) provided by Biacore. Un-reacted moieties on the biosensor surface were blocked with ethanolamine. A Protein G chip (Cat#:29-1793-15, GE healthcare) was used for the positive controls affinity determination. The anti-PD-1 antibodies of the disclosure and the two positive controls at the concentration of 2 μg/ml were respectively flowed onto the chip at a flow rate of 10 μl/min. Then, serially diluted recombinant human PD-1-his protein (Cat#:10377-H08H, Sino biological Inc.), cynomolgus PD-1-his protein (Cat#:PD1-05223, Acro biosystems Inc.) and recombinant mouse PD-1-his protein (Cat#:50124-M08H, Sino Biological Inc), 2-fold dilution in HBS-EP⁺ buffer (provided by Biacore) starting at 200 nM, were respecitvely flowed onto the chip at a flow rate of 30 μl/min. The antigen-antibody association kinetics was followed for 2 minutes and the dissociation kinetics was followed for 10 minutes. The association and dissociation curves were fit to a 1:1 Langmuir binding model using Biacore evaluation software.

[2] = molecular target: T2, full length mouse PD-1 expressed on 293F-mouse PD-1 cells (mouse, UniProt Q02242 25-288); experiment: cell-based blocking FACS: 293F-mouse PD-1 cells incubated with antibody, then with mouse PD-L1-hFc (blocked ligand), detected with anti-human IgG Fc-PE; unit from the axis 'Con of mAb, nM.'
T2 construct: also called cell surface mouse PD-1
T2 sequence: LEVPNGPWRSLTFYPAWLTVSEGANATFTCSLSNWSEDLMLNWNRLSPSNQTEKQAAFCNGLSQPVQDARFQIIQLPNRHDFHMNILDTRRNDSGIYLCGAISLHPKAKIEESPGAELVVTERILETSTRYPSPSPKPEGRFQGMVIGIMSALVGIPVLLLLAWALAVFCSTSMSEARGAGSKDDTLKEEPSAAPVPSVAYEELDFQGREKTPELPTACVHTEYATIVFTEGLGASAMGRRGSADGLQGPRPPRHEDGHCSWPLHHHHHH
Description: Briefly, 293F-mouse PD-1 cells were harvested from cell culture flasks, washed twice and re-suspended in PBS containing 2% v/v Fetal Bovine Serum (FACS buffer). Then, 1×10⁵ cells per well in 96 well-plates were incubated in 100 μL of the anti-PD-1 antibodies or controls at various concentrations (starting at 80 nM with a 3-fold serial dilution) in FACS buffer for 40 minutes at 4° C. […] The plates were washed twice with FACS buffer, and then added and incubated for 40 minutes at 4° C. in dark with 100 μl/well R-Phycoerythrin AffiniPure Goat Anti-Human IgG, Fcγ fragment specific (1:1000 dilution in FACS buffer, Cat#:109-115-098, Jackson Immunoresearch). Cells were washed twice and re-suspended in FACS buffer. Fluorescence was measured using a Becton Dickinson FACS Canto II-HTS equipment. Data was analyzed using Graphpad Prism software and IC₅₀ values were reported.

[3] = molecular target: T1, recombinant mouse PD-1-his protein …; experiment: indirect ELISA on coated mouse PD-1-his; unit from the axis 'Con of mAb, nM.'
Description: (§1) Briefly, 96-well micro plates were coated with 100 μl 2 μg/ml mouse PD-1-his (Cat#:50124-M08H, Sino Biological Inc) or 2 μg,/ml cynomolgus PD-1-his (Cat#:PD1-05223, Acro biosystems Inc.) in carbonate/bicarbonate buffer (pH 9.6) for 2 hours at 37° C. Plates were washed once with wash buffer (PBST, PBS+0.05% Tween-20) and then blocked with 200 μl blocking buffer (5% w/v non-fatty milk in PBST) for 2 hours at 37° C. […] ELISA plates were washed 4 times and incubated with Peroxidase AffiniPure goat anti-mouse IgG, Fcγ Fragment Specific (1:5000 dilution in PBST buffer, Cat#:115-035-071, Jackson ImmunoResearch Laboratories, Inc., 100 μl/well) or Peroxidase AffiniPure F(ab′)₂ Fragment Goat Anti-Human IgG, Fcγ fragment specific (Cat#:109-036-098, Jackson ImmunoResearch, for the controls) for 40 minutes at 37° C. After a final wash, plates were incubated with 100 μl/well TMB (Cat#:TMB-S-002, innoreagents) at room temperature. The reaction was stopped 3-10 minutes later with 50 μl/well 1M H₂SO₄, and the absorbance was read on a microplate reader using dual wavelength mode with 450 nm for TMB and 630 nm as the reference wavelength. Then the OD (450-630) values were plotted against antibody concentrations. Data was analyzed using GraphPad Prism software and EC₅₀ values were reported.

[4] = molecular target: T3, cynomolgus PD-1-his protein (Cat#:PD1-05223, Acro biosystems Inc.) (cynomolgus, UniProt B0LAJ3 25-170); experiment: indirect ELISA on coated cynomolgus PD-1-his; unit from the axis 'Con of mAb, nM.'
T3 construct: Bought protein used in Biacore and indirect ELISA; also called monkey PD-1; Cyno PD-1
T3 sequence (B0LAJ3 entry or part of it limits assumed): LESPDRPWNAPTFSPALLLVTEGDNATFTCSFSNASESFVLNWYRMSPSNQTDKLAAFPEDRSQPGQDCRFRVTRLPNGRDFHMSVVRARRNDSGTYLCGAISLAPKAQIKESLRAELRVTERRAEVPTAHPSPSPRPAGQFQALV
Description: as §1

- Kd [1]: 150 nM
- koff [1]: 0.031 s⁻¹
- kon [1]: 207000 M⁻¹ s⁻¹
- IC50 [2]: 6.86 nM
- EC50 [3]: 0.185 nM
- EC50 [4]: 0.121 nM
B1: mouse anti-PD-1 monoclonal antibody E1A9C8A7 (antibody, V domains shown)
VH: QVQLQQSGAEVVRPGVSVRISCKGSGYTFSDYVMHWMKQSHGESLEWIGVISTYHIPAVYNQKFKGKATMTVDKSSSTVYLELARLTSEDSAIYYCAREVYGDSYYFDVWGAGTTVTVSS
VL: DVLMTQIPLSLPVSLGDQVSISCRSSQSIVHSNGNTYLEWYLQKPGQSPKLLIYKVSNRFSGVPDRFSGSGSGTDFTLKISRVEAEDLGVYYCFQGSHVPYTFGGGTKLEIK
notes: Hybridoma-derived mouse mAb purified on Protein A; also called Mouse E1A9C8A7

- Kd [1]: 29.8 nM
- koff [1]: 0.00553 s⁻¹
- kon [1]: 186000 M⁻¹ s⁻¹
- IC50 [2]: 2.49 nM
- EC50 [3]: 0.34 nM
- EC50 [4]: 0.166 nM
B2: mouse anti-PD-1 monoclonal antibody E2G4E10B7 (antibody, V domains shown)
VH: QVQLQQSGAELVRPGVSVKISCKGSGYTFTDYVMHWVRQSHAKSLEWIGVISTHFGDGVYNQKFKGKATMTVDKSSSTAYMELARLTSEDSAIYYCAREVYGDSWYFDVWGAGTTVTVSS
VL: B1 VL with I7T, V19A, I29L, N33D, V83L
notes: Hybridoma-derived mouse mAb; also called Mouse E2G4E10B7

Reference: patent US20230331848A1 (BIOSION, published 2023)
